Reference: patent US20170290876A1 (Novartis, published 2017)
Residue numbers refer to the chain shown, from its start.

T1: human VEGF (human, UniProt P15692 207-395, biotinylated (site not stated))
T1 construct: Biotinylated human VEGF generated internally; also called hVEGF; hVEGF-biotin
T1 sequence: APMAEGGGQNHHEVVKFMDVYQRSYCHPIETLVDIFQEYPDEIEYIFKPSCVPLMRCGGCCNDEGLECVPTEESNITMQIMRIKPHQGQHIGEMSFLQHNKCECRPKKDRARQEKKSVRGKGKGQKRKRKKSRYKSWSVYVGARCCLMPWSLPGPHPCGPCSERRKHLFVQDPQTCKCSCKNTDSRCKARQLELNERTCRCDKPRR

B1: NVS101 (Fab)
heavy: EVQLVESGGGLVQPGGSLRLSCTASGFSLTDYYYMTWVRQAPGKGLEWVGFIDPDDDPYYATWAKGRFTISRDNSKNTLYLQMNSLRAEDTAVYYCAGGDHNSGWGLDIWGQGTLVTVSSASTKGPSVFPLAPSSKSTSGGTAALGCLVKDYFPEPVTVSWNSGALTSGVHTFPAVLQSSGLYSLSSVVTVPSSSLGTQTYICNVNHKPSNTKVDKRVEPKSC
light: ACGVYHREAQSGKYYLTYAEAKAVCEFEGGHLATYKQLLCAQKIGFHVCAAGWMAKGRVGYPIVKPGPNCGFGKTGIIDYGIRLNRSERWDAYCYNPHAGGGSDIVMTQSPSTLSASVGDRVIITCQASEIIHSWLAWYQQKPGKAPKLLIYLASTLASGVPSRFSGSGSGAEFTLTISSLQPDDFATYYCQNVYLASTNGANFGQGTKLTVLKRTVAAPSVFIFPPSDEQLKSGTASVVCLLNNFYPREAKVQWKVDNALQSGNSQESVTEQDSKDSTYSLSSTLTLSKADYEKHKVYACEVTHQGLSSPVTKSFNRGEC
B2: NVS104 (Fab)
heavy: GACGVYHREAQSGKYYLTYAEAKAVCEFEGGHLATYKQLLCAQKIGFHVCAAGWMAKGRVGYPIVKPGPNCGFGKTGIIDYGIRLNRSERWDAYCYNPHAGGGSQVQLVESGGGLVQPGGSLRLSCTASGFSLTDYYYMTWVRQAPGKGLEWVGFIDPDDDPYYATWAKGRFTISRDNSKNTLYLQMNSLRAEDTAVYYCAGGDHNSGWGLDIWGQGTLVTVSSASTKGPSVFPLAPSSKSTSGGTAALGCLVKDYFPEPVTVSWNSGALTSGVHTFPAVLQSSGLYSLSSVVTVPSSSLGTQTYICNVNHKPSNTKVDKRVEPKSC
light: B1 light
notes: Tag NVS-AX at the N-terminus of NVS4 heavy and light chains
B3: NVS103 (Fab)
heavy: B1 heavy
light: DIVMTQSPSTLSASVGDRVIITCQASEIIHSWLAWYQQKPGKAPKLLIYLASTLASGVPSRFSGSGSGAEFTLTISSLQPDDFATYYCQNVYLASTNGANFGQGTKLTVLKRTVAAPSVFIFPPSDEQLKSGTASVVCLLNNFYPREAKVQWKVDNALQSGNSQESVTEQDSKDSTYSLSSTLTLSKADYEKHKVYACEVTHQGLSSPVTKSFNRGECGSGGGACGVYHREAQSGKYYLTYAEAKAVCEFEGGHLATYKQLLCAQKIGFHVCAAGWMAKGRVGYPIVKPGPNCGFGKTGIIDYGIRLNRSERWDAYCYNPHA
notes: Tag NVS-AX at the C-terminus of the NVS4 light chain
B4: NVS106 (Fab)
heavy: B2 heavy with Q105E, D135N, D159Q, D160N, D204N, D212N
light: B1 light with D104E, E130Q, I131K, L153Q, T156K, S159K
notes: Tag NVS-AX at the N-terminus of the LC2 light chain and the HC4 heavy chain
B5: NVS4/NVSY (Fab)
heavy: EVQLVESGGGLVQPGGSLRLSCTASGFSLTDYYYMTWVRQAPGKGLEWVGFIDPDDDPYYATWAKGRFTISRDNSKNTLYLQMNSLRAEDTAVYYCAGGDHNSGWGLDIWGQGTLVTVSSASTKGPSVFPLAPSSKSTSGGTAALGCLVKDYFPEPVTVSWNSGALTSGVHTFPAVLQSSGLYSLSSVVTVPSSSLGTQTYICNVNHKPSNTKVDKRVEPKSCGSGGGGVYHREAISGKYYLTYAEAKAVCEFEGGHLATYKQLQAAQKIGFHVCAAGWMAKGRVGYPIVKPGPNCGFGKTGIIDYGIRLNRSERWDAYCYNPHA
light: EIVMTQSPSTLSASVGDRVIITCQASEIIHSWLAWYQQKPGKAPKLLIYLASTLASGVPSRFSGSGSGAEFTLTISSLQPDDFATYYCQNVYLASTNGANFGQGTKLTVLKRTVAAPSVFIFPPSDEQLKSGTASVVCLLNNFYPREAKVQWKVDNALQSGNSQESVTEQDSKDSTYSLSSTLTLSKADYEKHKVYACEVTHQGLSSPVTKSFNRGEC
notes: NVS4 Fab linked to peptide tag NVS-Y
B6: NVS100 (Fab)
heavy: B2 heavy
light: B5 light
notes: Tag NVS-AX at the N-terminus of the NVS4 heavy chain
B7: NVS102 (Fab)
heavy: QVQLVESGGGLVQPGGSLRLSCTASGFSLTDYYYMTWVRQAPGKGLEWVGFIDPDDDPYYATWAKGRFTISRDNSKNTLYLQMNSLRAEDTAVYYCAGGDHNSGWGLDIWGQGTLVTVSSASTKGPSVFPLAPSSKSTSGGTAALGCLVKDYFPEPVTVSWNSGALTSGVHTFPAVLQSSGLYSLSSVVTVPSSSLGTQTYICNVNHKPSNTKVDKRVEPKSCGSGGGACGVYHREAQSGKYYLTYAEAKAVCEFEGGHLATYKQLLCAQKIGFHVCAAGWMAKGRVGYPIVKPGPNCGFGKTGIIDYGIRLNRSERWDAYCYNPHA
light: B5 light
notes: Tag NVS-AX at the C-terminus of the NVS4 heavy chain
B8: NVS105 (Fab)
heavy: B7 heavy
light: B3 light
notes: Tag NVS-AX at the C-terminus of NVS4 heavy and light chains
B9: NVS107 (Fab)
heavy: B7 heavy with Q1E, D31N, D55Q, D56N, D100N, D108N
light: B3 light with D1E, E27Q, I28K, L50Q, T53K, S56K
notes: Tag NVS-AX at the C-terminus of the LC2 light chain and the HC4 heavy chain

Each binder was assayed against T1, human VEGF (assay: Biacore SPR, hVEGF).

Binder	Kd [pM]	koff [s⁻¹]	kon [M⁻¹ s⁻¹]
B1	7.1	0.000219	3.09e+07
B2	0.854	1.57e-05	1.84e+07
B3	2.34	0.000128	5.49e+07
B4	10.4	0.000563	5.4e+07
B5	0.447	2.26e-05	5.06e+07
B6	1.34	4.97e-05	3.71e+07
B7	1.43	0.000134	9.35e+07
B8	0.13	3.97e-05	3.06e+08
B9	0.741	0.000104	1.41e+08
